Data on 31 sequences can be found in the supplement of paper PMC9170038.

The data set relates to MS2 coat protein. Kind of data set: apparent KD of MS2 coat protein; designed switch direction (-1 OFF switch, 1 ON switch): -1; higher = weaker reporter binding. In outline: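 Designed RNA switches were transcribed on Illumina chips by stalled E. coli RNA polymerase and titrated with SNAP-549-labelled MS2 coat protein from 0.7 or 1.5 nM, doubling to 3 µM. Step length ran from 0.8–1.5 h at the lowest concentration to 10–20 min at the highest. The apparent KD is the median over clusters for each design, from curve-fitted normalised cluster fluorescence.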

The mark [1] stands for this setting: input ligand: microRNA oligo, concentration not stated.
Setting [2] is: Eterna round: R95, input ligand: FMN 200 uM.
The mark [3] stands for this setting: Eterna round: R95, input ligand: microRNA oligo, concentration not stated.
[4] abbreviates: Eterna round: R95, input ligand: none.

Regarding “ACCUCACAUGAGGAUCACCCAUGUCAGGAUAUCUAAUAUUGUAGCGUUCCCGACGCUAAGAGAAGGGACAUUAA [EX1 #31] (Eterna round: R97, puzzle: Exclusion 1)”, the “apparent KD of MS2 coat protein” value is, setting by setting: (input ligand: FMN 200 uM) 19.5 nM; (input ligand: none) 16.5 nM.
On the same counts, the results for “ACCUCACAUGAGGAUCACCCAUGUCAGGAUAUCUGAUGUAGUCCCGUUCCGGACGCUGAGAGAAGGGACGUUGA [EX1 #39] (Eterna round: R97, puzzle: Exclusion 1)” are 38.9 nM and 51.6 nM.
Taken in the same sequence, the figures for “ACCUUACUGGUCAGGAUAUACAGUCUUUGGUGUGUGUAGAAGGGACAUGAGGAUCACCCAUGUAGGUUGCUUUA [alecazam62] (Eterna round: R97, puzzle: Brourd's mod of Exclusion 4)” were 220 nM and 141 nM.
On the same counts, the results for “ACCUUACUUGAGGAUCACCCAAGUCAGGAUAUACACCAGAAUAAAUCCCAGCCCUGGCGUAGAAGGGACGGGUG [Soesma] (Eterna round: R97, puzzle: Exclusion 1)” are 23.9 nM and 21.8 nM.
“ACGACGUAAGGAUAUACAUGAGGAUCACCCAUGUGGAGAUCCAGAGGAGAGACCUGACGUAGAAGGUGCGUCGA [Eternabot (L2) Solution 87] (Eterna round: R97, puzzle: Exclusion 3)”: the “apparent KD of MS2 coat protein” value amounted to 286 nM (input ligand: FMN 200 uM) and 1400 nM (input ligand: none).
With “ACGAUGACAGAAAGAUGUCAAAAGACAUGAGGAUCACCCAUGUAGGAUAUGGCUACGAAAAGUAGUCAGAAGGACAUGUCAUCA [Omei Exc(NG) 3 Av1] (Eterna round: R96, puzzle: Exclusion NG 3)”, the “apparent KD of MS2 coat protein” value is, setting by setting: (input ligand: FMN 200 uM) 16.2 nM; under setting [1], 10.6 nM; (input ligand: none) 13.8 nM.
Taken in the same sequence, the figures for “ACGAUGACCGAAAAGUGUUAACUGACAUGAGGAUCACCCAUGUAGGAUAUGGCUACGAAAAGUAGUCAGAAGGACAUGUCAUCA [Omei Exc(NG) 3 Av7] (Eterna round: R96, puzzle: Exclusion NG 3)” were 17.8 nM, 13.1 nM and 17.5 nM.
With “ACGCCAGGAGGAUAUGCAAUAAGUAACAUGAGGAUCACCCAUGUUCGGGCGAUCCUCGUGGCAGAAGGCCUAGCCG [Attira] (Eterna round: R97, puzzle: Exclusion 5)”, the “apparent KD of MS2 coat protein” value was determined as 95.5 nM (input ligand: FMN 200 uM) and 24.4 nM (input ligand: none).
“ACGCCCUGAGGAUAUCUUAUCCCGUACAUGAGGAUCACCCAUGUUUUCCUCCGGGCUUCGAGAGAAGGCAGGCCCA [Armus14] (Eterna round: R97, puzzle: Exclusion 5)”: the “apparent KD of MS2 coat protein” value runs as follows: (input ligand: FMN 200 uM) 88 nM; (input ligand: none) 39 nM.
On the same counts, the results for “ACGCGACAUGAGGAUCACCCAUGUGAGGAUAUGGCCUGUUUGUCGUGUGCUGGCUCUGUCAGAAGGCGCGUUGG [salish99_ex1_r4_042] (Eterna round: R97, puzzle: Exclusion 1)” are 255 nM and 128 nM.
“ACGCUCCGUGUAGGAUAUCGCCGUACCACUCGGCGAGAAGGACAUGAGGAUCACCCAUGUAUGUUAUUAUCACGUGUGGCGCGC [Design 51] (Eterna round: R96, puzzle: Exclusion NG 1)”: the “apparent KD of MS2 coat protein” value by setting is: (input ligand: FMN 200 uM) 25.5 nM; under setting [1], 15.2 nM; (input ligand: none) 19.9 nM.
Taken in the same sequence, the figures for “ACGGUUCUCCUCAGCUACAUGAGGAUCACCCAUGUGACUGAGCAGGAUAUACAUAAGUGCGAAAAGUAGAAGGGCUCGGCGCAC [Xeora] (Eterna round: R96, puzzle: Exclusion NG 3)” were 12.2 nM, 8.75 nM and 12.7 nM.
As to “ACGUACCUAGGAUAUACAUGGCCACAUGAUGCCAAGGAACAACUUGAGGAUCACCCAAGUAGAAGGAGGAAAAG [Riberace] (Eterna round: R97, puzzle: Exclusion 2)”, the “apparent KD of MS2 coat protein” value worked out at 78.1 nM (input ligand: FMN 200 uM) and 73.4 nM (input ligand: none).
For “ACGUACUGAGGAUAUACGAACAUGUCAAAAGACGUGAAGGGACAUGAGGAUCACCCAUGUAGAAGGCAGUACGA [Mat - Exclusion 2 - JL mod - D7] (Eterna round: R96, puzzle: Exclusion 2)”, under setting [1], the “apparent KD of MS2 coat protein” value came out at 32.7 nM.
For the sequence “ACGUGAUAUCUGUCGGUGGACAUGAGGAUCACCCAUGUAAGCUUUUCGCUCGUCUUAUAACCCGGUGACAGACCUUC [Edraatis] (puzzle: Sensor v3, turn-off variant 1)”, the “apparent KD of MS2 coat protein” value reads like this: under setting [2], 33.7 nM; under setting [3], 417 nM; under setting [4], 48 nM.
Taken in the same sequence, the figures for “ACGUGAUAUCUGUCGUUGGACAUGAGGAUCACCCAUGUAAGCUUUUUGCUCGUCUUAUAACCCGGUGACAGACCUUC [Dienlave] (puzzle: Sensor v3, turn-off variant 1)” were 24.7 nM, 236 nM and 23.9 nM.
As to “ACGUUUUUUGAGGAUAUGCGACGUUCCUUCGUCGUAGAAGGCGAUACAUGAGGAUCACCCAUGUUUAUGGGCAU [LRO-Ex6-17] (puzzle: Exclusion 6)”, the “apparent KD of MS2 coat protein” value under setting [3] turned out to be 86.4 nM.
Regarding “ACUAGAUGAGGAUAUGCAUAUUUUCGUGUUCUUCUAGGUUAACAUGAGGAUCACCCAUGUAGAAGGCGUCUAUC [Exclusion 2 - 25] (puzzle: Exclusion 2)”, under setting [3], the “apparent KD of MS2 coat protein” value came out at 21.6 nM.
On to “ACUAGCUUUUUGCAUAGUAGGUUUGGUGCUUCGUAUGCUACAUGAGGAUCACCCAUGUAUUACUGAUUUCGUCGUUU [JR_SV3TOV2_Sub093] (puzzle: Sensor v3, turn-off variant 2)”, for which the “apparent KD of MS2 coat protein” value worked out at 24.6 nM under setting [2], 41.1 nM under setting [3] and 27.3 nM under setting [4].
Turning to “ACUGGUCAUGAGGAUAUGCGCCAGAACGCCGGCGUAGAAGGCGUGACAUGAGGAUCACCCAUGUCAGUUCGCGA [eternacac ex6r4 sub30] (Eterna round: R97, puzzle: Exclusion 6)”, the “apparent KD of MS2 coat protein” value worked out at 39.1 nM (input ligand: FMN 200 uM) and 39.6 nM (input ligand: none).
On the same counts, the results for “ACUGGUCGAGGAUAUACAUGACGUGCUUCGGCACGAGAUCUACAUGAGGAUCACCCAUGUAGAAGGCGACCAGU [E2/11-A2] (Eterna round: R97, puzzle: Exclusion 2)” are 735 nM and 65 nM.
On the same counts, the results for “ACUUAUAGAGGAUAUACAGAAUAUUACAUGAGGAUCACCCAUGUUCUUCAAUGUAUAUAUGUAGAAGGCUAAGGAU [Mat - Exclusion 5 - JL Mod - D6] (Eterna round: R97, puzzle: Exclusion 5)” are 299 nM and 89.9 nM.
On the same counts, the results for “ACUUAUAGAGGAUAUACAGAAUAUUACAUGAGGAUCACCCAUGUUCUUCAAUGUAUAUAUGUAGAAGGCUAAGGUU [Mat - Exclusion 5 - JL Mod - D7] (Eterna round: R97, puzzle: Exclusion 5)” are 286 nM and 131 nM.
With “ACUUAUAGAGGAUAUACAGUUAAUUACAUGAGGAUCACCCAUGUUCUUCAAUGUAUAUAAGUAGAAGGCUAAGAAA [Mat - Exclusion 5 - Eli Mod - D5] (Eterna round: R97, puzzle: Exclusion 5)”, the “apparent KD of MS2 coat protein” value by setting is: (input ligand: FMN 200 uM) 58 nM; (input ligand: none) 13.5 nM.
Taken in the same sequence, the figures for “ACUUGUGUUGAGGAUAUGCGACGCAACGGUGGAGCAGAAGGCGGCACAUGAGGAUCACCCAUGUCAGUUCGCGA [eternacac ex6r4 sub33] (Eterna round: R97, puzzle: Exclusion 6)” were 86.3 nM and 14.6 nM.
Take “AGAAAGCAAGGAUAUACGAGGAGAAGGAGGAAAGUUAAAGGACAUGAGGAUCACCCAUGUAGAAGGUGCGAGAA [JR_Exclu2_Sub042] (puzzle: Exclusion 2)”: the “apparent KD of MS2 coat protein” value under setting [2] turned out to be 33.3 nM, the “apparent KD of MS2 coat protein” value under setting [3] is 58.9 nM and the “apparent KD of MS2 coat protein” value under setting [4] was found to be 55.8 nM.
For the sequence “AGAAAGUCAGGAUAUACAUGAGGAUCACCCAUGUAAAGAAAAGAAAGGGAAGGAAGAGGUAGAAGGGACAAGAA [JR_Exclu3_Sub031] (puzzle: Exclusion 3)”, the “apparent KD of MS2 coat protein” value under setting [2] was found to be 26.5 nM, the “apparent KD of MS2 coat protein” value under setting [3] turned out to be 22.7 nM and the “apparent KD of MS2 coat protein” value under setting [4] worked out at 23 nM.
Taken in the same sequence, the figures for “AGAAGUAGUACCCGAUCCUACAUGAGGAUCACCCAUGUAGCUAGACGUGCACGCGAUGCUCGUCAGACUACCAGAUG [salish99_TOv1_r3_032] (puzzle: Sensor v3, turn-off variant 1)” were 153 nM, 144 nM and 189 nM.
On the same counts, the results for “AGACAGUCAGGAUAUACAUGAGGAUCACCCAUGUUGAGAUGAGAAAGGGCAGGAAGAGGUAGAAGGGACGAGAG [JR_Exclu3_Sub036] (puzzle: Exclusion 3)” are 31 nM, 24.7 nM and 30.4 nM.
Consider “AGACCGAUAGCAGGAUAUAGGACGACGAGAGCGCUAGAAGGGCUGACGACAUGAGGAUCACCCAUGUUUUCGUCUCAACAGGCA [Eternabot solution 22] (Eterna round: R96, puzzle: Exclusion NG 1)”, for which the “apparent KD of MS2 coat protein” value (input ligand: FMN 200 uM) was 31 nM, the “apparent KD of MS2 coat protein” value under setting [1] was 23.1 nM and the “apparent KD of MS2 coat protein” value (input ligand: none) was determined as 29.2 nM.
Consider “AGACGGUGAGGAUAUAGACGCAAUCACAUGAGGAUCACCCAUGUGACACGUGAUGGCUGGUUAGAAGGCGCGAAUC [Eternabot (L1) Solution 37] (Eterna round: R97, puzzle: Exclusion 5)”, for which the “apparent KD of MS2 coat protein” value is, setting by setting: (input ligand: FMN 200 uM) 17.1 nM; (input ligand: none) 17.4 nM.
